The DeepSol protein solubility set

Assay: soluble on expression in E. coli; label from the status in PepcDB or PDB records

| Sequence | soluble on expression in E. coli |
| --- | --- |
| PVLFLALPALAQERKKVGVVLSGGGAKGVAHIQALKVIEEAGIPIDYIVGTSMGSIIGGLYSIGYTPQQLDSMVRKQDWMFLLSDRVKRSAMSLNEREKSEKYVFSFPFTKSPKDAVSGGIIKGQNLANLFTELTVGYHDSVDFNKLPIPFACVSQNIVNGEQIVFHNGILATAMRASMAIPGVFTPVRKDSMILIDGGMINNYPVDVARSMGADIIIGVDVQNNLKGID | not soluble |
| MAHHHHHHMNLDEFNELVEQRNRIEREIQENVNFLEAPENKGVGLHGKLVDEEGFPRNDIDIYSIRVARNKVICLKNDYLNVSKRIEEYLHKVHTSHPVIRVQRSKAKKEEGDDPNESPPESCTQDYDESAPGYELLIEEAKRSTFAMIDELVENSPSHKAGLRINDYIIQFGDVQKKKKKNEENEKEDADIFNRIAAYMRNNPTRIKVKILREGKIFFYFVFPNRTPNGLYIGCHLTPISVGGGSV | not soluble |
| MTLKLTYFDIRGLAEPIRLLLNDQEIPFEDNRISREEWAEMKSTMIFAQLPCLHIGTETIVQSAAILRHLGRIYGLNGSTESETSFIDMFSEGLRDLRTKYFTMIKTDYEDGKEAYITETLPGELLRIEKLFCTFNNGENFVSGDKLSYADYALFELLDIHLILTPTALNGTPALKRFHGRFAERPNMRLYLNKRAELNPFVSGNGKQ | not soluble |
| MSDYQMFEVQVSQVEPLTEQVKRFTLVATDGKPLPAFTGGSHVIVQMSDGDNQYSNAYSLLSSPHDTSCYQIAVRLEENSRGGSRFLHQQVKVGDRLTISTPNNLFALIPSARKHLFIAGGIGITPFLSHMAELQHSDVDWQLHYCSRNPESCAFRDELVQHPQAEKVHLHHSSTGTRLELARLLADIEPGTHVYTCGPEALIEAVRSEAARLDIAADTLHFEQFAIEDKTGDAFTLVLARSGKEFVVPEEMTILQVIENNKAAKVECLCREGVCGTCETAILEGEADHRDQYFSDEERASQQSMLICSRAKGKRLVLDL | soluble |
| MSIRDWPEAERPREKLLEQGAAALSDAELLAIFLRTGVTGCSAVELSRRLLSEFGGLRALLEADLASFCGHLGLGVAKYAQLQAVLEMGRRHLAERLRRDSILESPQAVRDYLKARLRHEQHEVFACLFLDTRHRVLSFEVLFQGSIDGASVYPRQVVKRTLAHNAAALILTHNHPSGDARPSLADRQLTARLKEALALIDVRVLDHFIIGDGEPLSLAEYGWL | not soluble |
| MKSNEHDDCQVTNPSTGHLFDLSSLSGRAGFTAAYSEKGLVYMSICGENENCPPGVGACFGQTRISVGKANKRLRYVDQVLQLVYKDGSPCPSKSGLSYKSVISFVCRPEAGPTNRPMLISLDKQTCTLFFSWHTPLACEQATECSVRNGSSIVDLSPLIHRTGGYEAYDESEDDASDTNPDFYINICQPLNPMHAVPCPAGAAVCKVPIDGPPIDIGRVAGPPILNPIANEIYLNFESSTPCLADKHFNYTSLIAFHCKRGVSMGTPKLLRTSECDFVFEWETPVVCPDEVRMDGCTLTDEQLLYSFNLSSLSTSTFKVTRDSRTYSVGVCTFAVGPEQGGCKDGGVCLLSGTKGASFGRLQSMKLDYRHQDEAVVLSYVNGDRCPPETDDGVPCVFPFIFNGKSYEECIIESRAKLWCSTTADYDRDHEWGFCRHSNSYRTSSIIFKCDEDEDIGRPQVFSEVRGCDVTFEWKTKVVCPPKKLKHHHHHH | soluble |
| SSGSKSSNSSAKKSAGKPQQGGDLVVGSIGEPTLFNSLYSTDDASTDIENMLYSFLTKTDEKLNVKLSLAESIKELDGGLAYDVKIKKGVKFHDGKELTADDVVFTYSVPLSKDYKGERGSTYEMLKSVEKKGDYEVLFKLKYKDGNFYNNALDSTAILPKHILGNVPIADLEENEFNRKKPIGSGPFKFKEWKQGQYIKLEANDDYFEGRPYLDTVTYKVIPDANAAEAQLQAGDINFFNVPATDYKTAEKFNNLKIVTDLALSYVYIGWNEKNELFKDKKVRQALTTALDRESIVSQVLDGDGEVAYIPESPLSWNYPKDIDVPKFEYNEKKAKQMLAEAGWKDTNGDGILDKDGKKFSFTLKTNQGNKVREDIAVVVQEQLKKIGIEVKTQIVEWSALVEQMNPPNWDFDAMVMGWSLSTFPDQYDIFHSSQIKKGLNYVWYKNAEADKLMKDAKSISDRKQYSKEYEQIYQKIAEDQPYTFLYYPNNHMAMPENLEGYKYHPKRDLYNIEKWWLAK | soluble |
| MCLIVFAWQPGHALPLLVAANRDEFYARPSLPLAAWEDAEGVFAGRDLEAGGTWLGLGPAGRFAALTNVRDPSQALGKRSRGELVADFLRGGGNPADYLAQVAGRAADYSGFNLLIGDRHQLWHYNPRVGPPRLLPAGIYGLSNAALDTPWPKLLKARAALAERLAEPHPQALLELLADAAPAADGQLPDTGVGLATERLLSSVFIASPSYGTRASSVVRVHADGTREMIERSFGPSGARLGEVSLVLPPGLEHHHHHH | not soluble |
